How the values were obtained:
hematopoiesis = assay: Carboplatin-induced myelosuppression in mice; type: in vivo, mouse
Description: For xenograft models, the NSG mice and BALB/c mice were subcutaneously injected with 2×10^6 viable MDA-MB-231 cells and TUBO cells in their right hind limbs, respectively. After the tumor grew to 1 cm in diameter, mice were randomly divided into the groups for each treatment. For no treatment control, 100 μl saline with 1% mouse serum was intravenously injected through tail vein. For treatment groups, 670 pmol/20 g chimeras and/or 5(0 mg/kg 5-fluorouracil (5-FU), or 120 mg/kg carboplatin were also intravenously injected. Tumor sizes were measured in two dimensions every 3 days. Tumor volume (V) was calculated using the following formula: V=(½) S^2×L (S. the shortest dimension; L, the longest dimension). Animals were euthanized when the tumor size was over 2 cm diameters, tumor ulcerated, or became necrotic. For chimera treatment in normal mice, C57BL/6 mice were treated with miR-26a chimera (670 pmol/20 g) everyday for 3 days by intravenous injection. At day 2, 150 mg/kg 5-FU and/or 120 mg/kg carboplatin was injected together with the chimera. Peripheral bloods were collected at day 5 and day 10 after the 5-FU treatment. Complete blood counts were measured by Hemavet 950FS (Drew Scientific, Miami Lakes, Fla., USA).

TUBO cells = assay: Binding to TUBO cells by flow cytometry; set-up: species or system mouse; conditions: biotinylated
Description: DNA sequences for anti-human KIT aptamer (21) and mouse c-Kit aptamers (22) conjugated with biotin at 3′ were functionalized by short denaturation-renaturation step (95° C. 10 min, 5 min snap-cooling on ice). These DNA sequences were 5′-[…] […]-3′ (SEQ ID NO: 2) for human KIT, 5′-[…]-3′ (SEQ ID NO:3) for mouse c-Kit. These activated aptamers were used for binding assay to the cell lines by flow cytometry. For chimera preparation, human KIT-aptamer or mouse c-Kit-aptamer miR-26a chimera was assembled by three compartments of DNA/RNA hybrid sequences. The sequences were 5′-[…] […]/C3 (SEQ ID NO:4) spacer/CCUAUUCUGG-3′(SEQ ID NO:5) for human KIT aptamer+the part of passenger sequence for miR-26a-5p, 5′-[…]/C3 (SEQ ID NO:6) spacer/CCUAUUCUGG-3′ (SEQ ID NO:7) for mouse cKit aptamer+the part of passenger sequence for miR-26a-5p, 5′-GUUACUUGCACG/TEG (triethylene glycol)-Cholesterol-3′ (SEQ ID NO:8) for the part of sequence for miR-26a-5p+cholesterol, and 5′-[…]-3′ (SEQ ID NO:9) for guide sequence for miR-26a-5p (RNA sequences were represented as italic). The guide sequence for scramble control was […] (SEQ ID NO:10). To protect the oligonucleotide sequences from nuclease degradation, phosphorothioate bonds were introduced between the last 3 nucleotides at the 5′-end of DNA aptamers. The RNA sequences were modified with 2′-fluoro-uridines. […]

TUBO-derived tumors = assay: Syngeneic TUBO breast tumor model in BALB/c mice; type: in vivo, mouse
[1] = Plasma levels and in vivo imaging of miR-26a chimera in TUBO tumor-bearing BALB/c mice; set-up: species or system mouse; conditions: 670 pmol single intravenous dose, qPCR
Description: FIG. 8A is a graph showing the pharmacokinetics of plasma levels of miR-26a chimera and the single dose administration in BALB/c mice bearing mouse TUBO breast cancer cell line. miR-26a chimera (670 pmol/20 g) was injected intravenously. Blood samples were collected at the indicated time points. The concentrations of miR-26a were determined by quantitative PCR using standard curve generated with dose-titrated miR-26a chimera. Data were pooled from three experiments, involving a total of 3 mice. FIG. 8B is a series of pictures showing in vivo imaging of miR-26a chimera conjugated with AF647 dye in BALB/c mice bearing tumor with TUBO cell line. A single dose of miR-26a chimera (670 pmol/20 g) was intravenously injected and followed by serial fluorescence imaging at the indicated time points by IVIS spectrum (Caliper LifeSciences, Waltham, Mass.). Data shown are series images from one experiment. Similar data were obtained from another experiment.

B1: miR-26a chimera: mouse c-Kit DNA aptamer-C3-passenger RNA, passenger RNA-TEG-cholesterol and miR-26a-5p guide strand annealed (SEQ ID NO:6/7, 8, 9) (nucleic acid)
chain 1: GCTCAACGCGGGACGGCTCTCCCATTGAC
chain 2: CCUAUUCUGG
chain 3: GUUACUUGCACG
guide: UUCAAGUAAUCCAGGAUAGGCU
modifications: chemistry not fully specified
carboplatin-induced myelosuppression (figure title) (hematopoiesis; 670 pmol/20 g i.v. daily for 3 days, FIG. 6): protects mice against carboplatin-induced myelosuppression
carboplatin-induced reduction in WBC and RBC (hematopoiesis; 3 daily injections of chimera): prevented reduction in WBC and RBC
carboplatin-induced reduction of platelet on day 5 (hematopoiesis; 3 daily injections of chimera): not prevented
drop of platelets from day 5 to day 10 (hematopoiesis; 3 daily injections of chimera): prevented further drop of platelets
binding to TUBO cells (TUBO cells): nearly identical levels comparable to an anti-c-Kit antibody
Bak expression among c-Kit+ tumor cells (TUBO-derived tumors; 670 pmol/20 g, 3 days): not significantly elevated
Ezh2 expression among c-Kit+ tumor cells (TUBO-derived tumors; 670 pmol/20 g, 3 days): specific decrease
miR-26a among c-Kit+ tumor cells (TUBO-derived tumors; 3 days after injection, qPCR): significant increase
miR-26a levels in c-Kit+ BM cells (TUBO-derived tumors; day 3 after single treatment, qPCR): selective increase
Bak1 expression in c-Kit+ HSPC (TUBO-derived tumors; mice that received no 5-FU-treatment): not significantly down-regulated
time miR-26a chimera could be detected in the blood after injection [1]: ≤ 8 h

— patent US20200171068A1, “COMPOSITIONS COMPRISING APTAMERS AND NUCLEIC ACID PAYLOADS AND METHODS OF USING THE SAME” (Children's National Medical Center, priority 2017, published 2020)
